From patent US20060188440A1 (FOX CHASE CANCER CENTER, published 2006) come the findings set out here.

In test [1] the target is T1, MISIIR-Fc ECD fusion protein (human, UniProt Q16671 18-149).
T1 construct: extracellular domain; Two orientations were made (ECD 5' or 3' of Fc); The secretion signal from the vector is not part of the secreted protein; also called MISIIR-Fc fusion protein; MISIIR ECD; not shown: tobacco etch virus cleavage site between MISIIR and Fc; human IgG1 Fc domain; C-terminal c-myc tag and 6xHis tag from the pSecTag2/Hygro vector
The experiment in a line: SPR (BIAcore 1000), MISIIR-Fc ECD on CM5 chip (600 RU), serially diluted scFv. How it is done:
(§1) Surface plasmon resonance (SPR) technology was used to determine the binding of the anti-MISIIR molecules to MISIIR ECD. The SPR response reflects a change in the mass concentration as molecules bind or dissociate from an antigen immobilized on a sensor chip. These studies were performed on a BIAcore 1000 instrument. The MISIIR-Fc ECD fusion protein target antigen was coated on a CM5 chip at a concentration of 5,000 resonance units (RU). The anti-MISIIR antibody molecules were then flowed over the chip and the difference in the response units (RU) between the start point and the end was determined. A negative control protein (Fc) was coated on a chip at 4,800 RU and was used to rule out binding to the Fc portion of the MISIIR-Fc fusion protein. The association and dissociation rates, and the affinity of each molecule for MISIIR ECD were determined by passing serially diluted samples over an MISIIR-Fc ECD coated chip with a lower concentration of target antigen (600 RU) as per the BIAcore manufacturer's instructions. The evaluation of the data was done using BIAEvaluation 3.0 software.

Test [2] concerns the target T1, MISIIR-Fc ECD fusion protein. As to the kind of experiment: assay not named in the sentence (ELISA / SPR of Example 1).
The target of test [3] is T2, MISIIR expressed on IGROV-1 cells (UniProt Q16671 18-573, limits assumed).
T2 construct: whole, on cells; also called MIS type II receptor
T2 sequence (looked up): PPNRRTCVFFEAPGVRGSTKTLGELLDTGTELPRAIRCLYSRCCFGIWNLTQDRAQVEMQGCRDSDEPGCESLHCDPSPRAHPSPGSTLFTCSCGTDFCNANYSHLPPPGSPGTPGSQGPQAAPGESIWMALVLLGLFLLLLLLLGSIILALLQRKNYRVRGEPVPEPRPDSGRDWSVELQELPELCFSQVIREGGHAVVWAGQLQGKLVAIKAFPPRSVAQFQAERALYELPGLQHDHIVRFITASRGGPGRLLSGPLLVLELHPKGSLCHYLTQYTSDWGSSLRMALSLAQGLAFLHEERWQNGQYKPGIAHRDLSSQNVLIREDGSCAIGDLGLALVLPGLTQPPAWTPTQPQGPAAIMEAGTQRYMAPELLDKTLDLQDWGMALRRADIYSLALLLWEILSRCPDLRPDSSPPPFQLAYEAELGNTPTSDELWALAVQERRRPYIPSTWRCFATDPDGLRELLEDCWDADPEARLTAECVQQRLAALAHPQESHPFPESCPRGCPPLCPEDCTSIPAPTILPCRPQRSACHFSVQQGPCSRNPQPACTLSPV
The experiment in a line: flow cytometry (FACS) on IGROV-1 cells, detection with fluorescein-conjugated goat anti-human IgG; concentration not given. On the procedure:
The binding of the antibodies was also tested in a standard fluorescence-activated cell sorter (FACS) assay.

The target of test [4] is T1, MISIIR-Fc ECD fusion protein. The experiment in a line: SPR (BIAcore 1000), chip coated with MISIIR (MISIIR-Fc ECD fusion protein), scFv-Fc flowed over; analyte concentration not given; time unit not given. How it is done:
as §1

B1: anti-MISIIR scFv of clone #17 (scFv)
scFv: MAQVTLKESGPTLVKPTQTLTLTCTFSGFSLTTSGVGVGWIRQAPGKAPEWLALIDWDDDKYYSTSLKTRLTISKDTSKNQVVLTMTNMDPVDTATYYCARDSYYGSGSHFDFWGQGTLVTVSSGGGGSGGGGSGGGGSSYELTQPPSVSVSPGQTATITCSGHDLRNKYAHWYQQKPGQSPVLVVYQDAKRPSGIPERFSGSNSGNTATLTISGTQAMDEADYYCQTWDRSTVVFGGGTKLTVLGQPKAAPSAA
notes: Expressed from pCYN (pUC119mychis) in E. coli and purified by IMAC; It carries C-terminal myc and His tags
Turning to B1, the Kd in test [1] amounted to 90 nM.

B2: anti-MISIIR scFv of clone #7 (scFv)
scFv: MAQVQLVQSGTEVKRPGASVKISCRATGYTFSDYGISWMRQAPGQGLEWMGWISAYNGNTNYAQKLQGRVTMTTDTSTSTAYMELRSLRYDDTAVYYCARDGRRGSGIYWGVYYYNGMDVWGQGTTVTVSSGGGGSGGGGSGGGGSQPVLTQPPSASGTPGQRVTISCSGSRSNIGRNTVNWYQQVPGMAPKLLIYSNNQRPSGVPDRFSGSKSGTSASLAISGLQSEDEADYYCAAWDDSLNGVVFGGGTKLTVLGQPKAAP
notes: Expressed from pCYN (pUC119mychis) with myc and His tags
With B2, in test [1], the Kd turned out to be 300 nM.

B3: scFv antibody molecule of clone #29 (scFv)
scFv: MAQVQLVQSGGGLVQPGGSLRLSCAASGFTVSSNYMSWVRQAPGKGLEWVSAISGSGGSTYYADSVKGRFTISRDNSKNTLYLQMNSLRAEDTAVYYCATRPSRGSSGWYGGDYWGQGTLVTVSSGGGGSGGGGSGGGGSSYELTQPPSTSGTPGQRVTISCSGSTSNIATNNVNWYQFLPGTAPKLLMYRNDQRPAGVPDRFSGSKSGTSASLAISGLQPEDEADYYCAAWDDSLGGEVFGTGTKVNVLGQPKAAPSAA
Consider B3, for which the binding result in test [2] is listed as “binds”.

B4: M9 scFv antibody molecule (scFv)
scFv: MAQVQLVQSGAEVKKPGASVKVSCKASGYTFTSYDINWVRQATGQGLEWMGWMNPNSGNTGYAQKFQGRVTMTRNTSTNTAYMELTSLTSEDTAVYYCARGSPSPMNVWGQGTTVTVSSGGGGSGGGGSGGGGSQPVLTQPHSVSESPGKTVTISCTRSSGSIANDYVQWFQQRPGSAPTIVIYEDYRRPSGVPDRFSGSIDSSSNSASLTISGLKTEDEADYYCQSYDSSNPYVVFGGGTKLTVLGQPKAAPSAAA
Take B4: the binding result in test [2] is recorded as “binds”.

B5: GY4 scFv antibody molecule (scFv)
scFv: MAQITLKESGPTLVKPTQTLTLTCTVSGFSLSNARMGVSWIRQPPGKALEWLALIYRDNDKRYNPSLKSRLTITKDTSKNQVVLTMSNMDPVDTATYYCAHSLVVPAANPFDYWGQGTLVTVSSSASGAELGGGGSGGGGSGGGGSTSQAVLTQPSSLSASPGASASLTCTLRSGINVGTYRIYWYQQKPGSPPQYLLRYKSDSDKQKGSGVPSRFSGSKDASANAGILLISGLQSEDEADYYCMIWHTSAYVFGTGTKVTVLGSS
Regarding B5, in test [2], the binding result is “binds”.

B6: scFv-Fc of clone #7 (Fc fusion)
scFv: QVQLVQSGTEVKRPGASVKISCRATGYTFSDYGISWMRQAPGQGLEWMGWISAYNGNTNYAQKLQGRVTMTTDTSTSTAYMELRSLRYDDTAVYYCARDGRRGSGIYWGVYYYNGMDVWGQGTTVTVSSGGGGSGGGGSGGGGSQPVLTQPPSASGTPGQRVTISCSGSRSNIGRNTVNWYQQVPGMAPKLLIYSNNQRPSGVPDRFSGSKSGTSASLAISGLQSEDEADYYCAAWDDSLNGVVFGGGTKLTVL
notes: Bivalent fusion secreted from mammalian cells; The F105 VH / pelB leader is not part of the secreted protein; Copies '2' follows from 'bivalent'; also called sFv-IgG fusion protein; not shown: Human IgG1 hinge-CH2-CH3 of the hinge stuffer vector, and the junction to it
For B6, the binding result in test [3] and in test [4] was “binds” throughout.
